# Key:
# [1] = biological target: ZFP 16 QSHR2-RDER1-RSHR (synthetic); assay: cell_activity; HEK293 luciferase repression; conditions: tags: HA tag and NLS (P3 vector)
# Method: (§1) The in vivo activity assay for a particular three-finger protein was carried out as follows. HEK 293 cells were transfected with four plasmids: 14 ng of a plasmid expressing the particular three-finger protein; 14 ng of the reporter plasmid described above; 70 ng of a plasmid that expresses GAL4-VP 16; and 1.4 ng of a plasmid that expresses Renillar luciferase. The GAL4-VP 16 activates transcription of the minimal synthetic promoter in the reporter so that the repression effected by a particular three-finger protein could be clearly detected and compared to other three-finger proteins. The plasmid expressing Renillar luciferase provides a control of transfection efficiency.
# (§2) Lipofectamine (Gibco-BRL) was used for the transfection procedures. Cells were transfected at 30-50% confluency in wells of a 96 well plate. The cells were incubated for two days prior to harvesting for the luciferase assay. Then luciferase activities were measured using the Dual-Luciferase™ Reporter Assay System (Promega). The observed firefly luciferase activity was normalized using the observed level of Renilla luciferase. The extent of repression or “fold-repression” was calculated by dividing a value for normalized reporter expression in the absence of a zinc finger protein by a value for normalized reporter expression in the presence of the zinc finger protein.
# (§3) A total of 153 three-finger chimeric proteins were constructed from both the “zinc finger protein-first” and the “target site-first” approaches. These proteins were tested using the transient cotransfection assay described in Example 68.
# [2] = biological target: ZFP 13 QSHR2-RDER1-RSNR (synthetic); assay: cell_activity; HEK293 luciferase repression; conditions: tags: HA tag and NLS (P3 vector)
# Method: as §1, §2, §3
# [3] = biological target: ZFP 24 CSNR1-QSHT-RSNR (synthetic); assay: cell_activity; HEK293 luciferase repression; conditions: tags: HA tag and NLS (P3 vector)
# Method: as §1, §2, §3
# [4] = biological target: ZFP 33 QSNV2-RSHR-RDER1 (Homo sapiens); assay: cell_activity; HEK 293 luciferase; conditions: tags: HA, NLS
# Method: as §1, §2, §3
# [5] = biological target: T1, Zif268 zinc finger protein (three fingers) (UniProt P08046 SEQ:1-89); assay: EMSA; Zn2+, Mg2+, pH 7.7, RT; no yeast growth; 1.6-fold repression (Table 8)
# [6] = biological target: ZFP 6 RSHR-RDER1-RDHT (synthetic); assay: cell_activity; HEK293 luciferase repression; conditions: tags: HA tag and NLS (P3 vector)
# Method: as §1, §2, §3
# [7] = biological target: ZFP 19 RDER1-VSSR-QSHT (synthetic); assay: cell_activity; HEK293 luciferase repression; conditions: tags: HA tag and NLS (P3 vector)
# Method: as §1, §2, §3
# [8] = biological target: ZFP 7 RDHT-QSNV2-RSHR (synthetic); assay: cell_activity; HEK293 luciferase repression; conditions: tags: HA tag and NLS (P3 vector)
# Method: as §1, §2, §3
# [9] = biological target: ZFP 27 RSHR-RDER1-RSHR (synthetic); assay: cell_activity; HEK293 luciferase repression; conditions: tags: HA tag and NLS (P3 vector)
# Method: as §1, §2, §3
# [10] = biological target: ZFP 10 RDHT-RSHR-QSHR2 (synthetic); assay: cell_activity; HEK293 luciferase repression; conditions: tags: HA tag and NLS (P3 vector)
# Method: as §1, §2, §3
# [11] = biological target: ZFP 8 RSNR-QSHR2-QSSR1 (synthetic); assay: cell_activity; HEK293 luciferase repression; conditions: tags: HA tag and NLS (P3 vector)
# Method: as §1, §2, §3
# [12] = biological target: ZFP 3 RDHT-QSNV2-QSSR1 (synthetic); assay: cell_activity; HEK293 luciferase repression; conditions: tags: HA tag and NLS (P3 vector)
# Method: as §1, §2, §3
# [13] = biological target: ZFP 2 CSNR1-RSHR-RDHT (synthetic); assay: cell_activity; HEK293 luciferase repression; conditions: tags: HA tag and NLS (P3 vector)
# Method: as §1, §2, §3
# [14] = biological target: ZFP 4 RSHR-RDER1-RDER1 (synthetic); assay: cell_activity; HEK293 luciferase repression; conditions: tags: HA tag and NLS (P3 vector)
# Method: as §1, §2, §3
# [15] = biological target: ZFP 18 RDER1-QSSR1-QSHT (synthetic); assay: cell_activity; HEK293 luciferase repression; conditions: tags: HA tag and NLS (P3 vector)
# Method: as §1, §2, §3
# [16] = biological target: ZFP 23 RDHT-RSNR-QSNR3 (synthetic); assay: cell_activity; HEK293 luciferase repression; conditions: tags: HA tag and NLS (P3 vector)
# Method: as §1, §2, §3
# [17] = biological target: T1, Zif268 zinc finger protein (three …); assay: EMSA; 20 mM Tris pH 7.7, 120 mM NaCl, 5 mM MgCl2, 20 uM ZnSO4, RT; yeast growth +++; 28-fold repression in human cells (Table 8)
# Chain of ZFP 8 RSNR-QSHR2-QSSR1 (synthetic) (chain, as listed by the source): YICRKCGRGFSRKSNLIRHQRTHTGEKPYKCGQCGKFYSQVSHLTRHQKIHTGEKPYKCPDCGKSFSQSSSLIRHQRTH
# Chain of ZFP 18 RDER1-QSSR1-QSHT (synthetic) (chain, as listed by the source): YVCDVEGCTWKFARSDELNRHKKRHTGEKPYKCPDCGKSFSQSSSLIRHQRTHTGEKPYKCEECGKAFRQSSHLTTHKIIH
# Chain of ZFP 27 RSHR-RDER1-RSHR (synthetic) (chain, as listed by the source): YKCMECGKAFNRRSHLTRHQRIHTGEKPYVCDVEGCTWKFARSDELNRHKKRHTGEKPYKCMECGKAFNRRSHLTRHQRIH
# Chain of ZFP 10 RDHT-RSHR-QSHR2 (synthetic) (chain, as listed by the source): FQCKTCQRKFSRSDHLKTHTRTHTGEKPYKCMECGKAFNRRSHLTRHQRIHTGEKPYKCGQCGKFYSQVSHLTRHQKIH
# Chain of ZFP 33 QSNV2-RSHR-RDER1 (Homo sapiens) (chain, as listed by the source): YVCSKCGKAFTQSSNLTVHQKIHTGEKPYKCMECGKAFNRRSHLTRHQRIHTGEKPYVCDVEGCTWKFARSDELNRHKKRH
# Chain of ZFP 2 CSNR1-RSHR-RDHT (synthetic) (chain, as listed by the source): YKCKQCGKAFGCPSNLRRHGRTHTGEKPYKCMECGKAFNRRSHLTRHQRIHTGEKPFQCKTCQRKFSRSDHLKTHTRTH
# Chain of ZFP 4 RSHR-RDER1-RDER1 (synthetic) (chain, as listed by the source): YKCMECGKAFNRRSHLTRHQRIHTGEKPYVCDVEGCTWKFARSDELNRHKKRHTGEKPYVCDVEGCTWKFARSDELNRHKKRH
# Chain of ZFP 7 RDHT-QSNV2-RSHR (synthetic) (chain, as listed by the source): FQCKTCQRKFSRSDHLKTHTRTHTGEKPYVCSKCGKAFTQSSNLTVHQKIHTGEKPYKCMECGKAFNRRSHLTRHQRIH
# Chain of ZFP 3 RDHT-QSNV2-QSSR1 (synthetic) (chain, as listed by the source): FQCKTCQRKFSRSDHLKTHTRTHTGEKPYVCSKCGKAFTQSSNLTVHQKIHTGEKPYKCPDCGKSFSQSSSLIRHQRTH
# Chain of ZFP 19 RDER1-VSSR-QSHT (synthetic) (chain, as listed by the source): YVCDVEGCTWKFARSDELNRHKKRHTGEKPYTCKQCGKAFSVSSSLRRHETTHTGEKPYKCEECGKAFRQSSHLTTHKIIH
# Chain of ZFP 6 RSHR-RDER1-RDHT (synthetic) (chain, as listed by the source): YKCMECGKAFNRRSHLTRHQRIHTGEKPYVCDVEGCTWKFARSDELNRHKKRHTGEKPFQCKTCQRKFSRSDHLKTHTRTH
# Chain of ZFP 13 QSHR2-RDER1-RSNR (synthetic) (chain, as listed by the source): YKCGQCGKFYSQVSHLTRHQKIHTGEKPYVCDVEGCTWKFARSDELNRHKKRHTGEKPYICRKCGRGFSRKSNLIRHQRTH
# Chain of ZFP 16 QSHR2-RDER1-RSHR (synthetic) (chain, as listed by the source): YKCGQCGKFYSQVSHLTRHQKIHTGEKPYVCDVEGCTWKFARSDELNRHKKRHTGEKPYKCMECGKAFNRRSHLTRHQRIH
# Chain of ZFP 24 CSNR1-QSHT-RSNR (synthetic) (chain, as listed by the source): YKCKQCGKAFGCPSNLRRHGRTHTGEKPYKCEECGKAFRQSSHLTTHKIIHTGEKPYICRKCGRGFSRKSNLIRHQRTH
# Chain of ZFP 23 RDHT-RSNR-QSNR3 (synthetic) (chain, as listed by the source): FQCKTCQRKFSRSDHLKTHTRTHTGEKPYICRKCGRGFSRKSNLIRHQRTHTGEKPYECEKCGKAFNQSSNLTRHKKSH
binder,measurement,setting,value
target 16 (dsDNA) DNA 1: GGGGCGGGAT DNA 2: ATCCCGCCCC,activity,[1],2.3 fold repression
target 13 (dsDNA) DNA 1: GAGGTGGGAG DNA 2: CTCCCACCTC,activity,[2],2.8 fold repression
target 24 (dsDNA) DNA 1: GAGTGAGACC DNA 2: GGTCTCACTC,activity,[3],2.1 fold repression
target 33 (dsDNA) DNA 1: GTGGGGAAAA DNA 2: TTTTCCCCAC,activity,[4],1.9 fold repression
GAGC probe (dsDNA) DNA 1: CCGGGTCGCGAGCGGGCGGTACCG DNA 2: TCGACGGTACCGCCCGCTCGCGAC,Kd,[5],2.3 nM
target 6 (dsDNA) DNA 1: AGGGCGGGGC DNA 2: GCCCCGCCCT,activity,[6],3.6 fold repression
target 19 (dsDNA) DNA 1: CGAGTTGCG DNA 2: CGCAACTCG,activity,[7],2.1 fold repression
target 7 (dsDNA) DNA 1: GGGAAACGGG DNA 2: CCCGTTTCCC,activity,[8],3.6 fold repression
target 27 (dsDNA) DNA 1: GGGGTGGGG DNA 2: CCCCACCCC,activity,[9],2 fold repression
target 10 (dsDNA) DNA 1: GGAGGGTGG DNA 2: CCACCCTCC,activity,[10],3.1 fold repression
target 8 (dsDNA) DNA 1: GTAGGAGAGT DNA 2: ACTCTCCTAC,activity,[11],3.3 fold repression
target 3 (dsDNA) DNA 1: GCACAATGG DNA 2: CCATTGTGC,activity,[12],4 fold repression
target 2 (dsDNA) DNA 1: TGGGGGGACA DNA 2: TGTCCCCCCA,activity,[13],4.5 fold repression
target 4 (dsDNA) DNA 1: GCGGCGGGGC DNA 2: GCCCCGCCGC,activity,[14],3.8 fold repression
target 18 (dsDNA) DNA 1: CGAGCAGCG DNA 2: CGCTGCTCG,activity,[15],2.2 fold repression
target 23 (dsDNA) DNA 1: GAAGAGAGGT DNA 2: ACCTCTCTTC,activity,[16],2.1 fold repression
GCGT probe (dsDNA) DNA 1: CCGGGTCGCGCGTGGGCGGTACCG DNA 2: TCGACGGTACCGCCCACGCGCGAC,Kd,[17],0.024 nM

# — patent US20030165997, “Zinc finger domain libraries” (published 2003)
